The values that follow come from patent publication US20050124539A1 (Takeda / Millennium, published 2005).

The chains are these.
T1: Human GPR7 (human, UniProt P48145 1-328)
T1 sequence: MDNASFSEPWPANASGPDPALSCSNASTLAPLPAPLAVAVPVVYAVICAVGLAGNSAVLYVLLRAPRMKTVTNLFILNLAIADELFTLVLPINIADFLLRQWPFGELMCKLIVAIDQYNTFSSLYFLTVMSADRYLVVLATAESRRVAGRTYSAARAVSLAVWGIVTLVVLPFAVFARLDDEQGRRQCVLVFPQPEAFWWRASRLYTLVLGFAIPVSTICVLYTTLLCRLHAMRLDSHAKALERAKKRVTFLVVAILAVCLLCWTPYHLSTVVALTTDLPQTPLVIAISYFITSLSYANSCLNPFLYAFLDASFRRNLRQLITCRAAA

T2: TGR26, rat-derived G protein-coupled receptor protein (rat, UniProt Q56UD9 1-329)
T2 construct: Expressed in CHO dhfr- cells from pAK-rGPR7; also called rat TGR26; TGR26 receptor
T2 sequence: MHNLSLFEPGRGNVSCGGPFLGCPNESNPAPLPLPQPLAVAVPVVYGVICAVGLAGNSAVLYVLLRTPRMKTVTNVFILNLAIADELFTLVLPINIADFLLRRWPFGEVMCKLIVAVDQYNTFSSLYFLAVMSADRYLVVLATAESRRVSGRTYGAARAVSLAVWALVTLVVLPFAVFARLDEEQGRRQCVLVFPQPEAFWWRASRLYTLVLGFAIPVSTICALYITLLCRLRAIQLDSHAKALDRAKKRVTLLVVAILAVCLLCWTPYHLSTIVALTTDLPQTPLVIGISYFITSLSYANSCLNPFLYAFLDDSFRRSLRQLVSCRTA

B1: human homologue of GPR8 ligand peptide consisting of 30 residues (peptide)
peptide: WYKHVASPRYHTVGRAAGLLMGLRRSPYLW
notes: also called hGPR8L(1-30); Human GPR8 ligand (1-30)
B2: [N-3-Indolepropanoyl-Tyr^2]-human GPR8 ligand (2-23) (peptide)
peptide: {Propanoyl(3-indol-3-yl)}-YKHVASPRYHTVGRAAGLLMGL
notes: also called IndPr-hGPR8L(2-23)
B3: [N^α-Acetyl-Trp^1]-Human GPR8 ligand (1-23) (peptide)
peptide: XYKHVASPRYHTVGRAAGLLMGL
modifications: N-alpha-acetyl on Trp 1
notes: also called Ac-hGPR8L(1-23)
B4: Human GPR8 ligand (1-18) (peptide)
peptide: WYKHVASPRYHTVGRAAG
notes: also called hGPR8L(1-18)
B5: porcine GPR8 ligand (1-23) (peptide)
peptide: WYKHTASPRYHTVGRAAGLLMGL
notes: also called pGPR8L(1-23); porcine homologue of GPR8 ligand peptide
B6: Human GPR8 ligand (1-23) oxidant (peptide)
peptide: WYKHVASPRYHTVGRAAGLLXGL
modifications: methionine sulfoxide, Met(O), at position 21
notes: also called [MET(O)]-hGPR8L(1-23)
B7: [N-Acetyl-Tyr^2]-Human GPR8 ligand (2-23) (peptide)
peptide: Ac-YKHVASPRYHTVGRAAGLLMGL
notes: also called Ac-hGPR8L(2-23)

No end group written: not given here. *: point of attachment. Propanoyl(3-indol-3-yl) = O=C(CCc1c[nH]c2ccccc12)*

T3 sequence (P48146 whole entry): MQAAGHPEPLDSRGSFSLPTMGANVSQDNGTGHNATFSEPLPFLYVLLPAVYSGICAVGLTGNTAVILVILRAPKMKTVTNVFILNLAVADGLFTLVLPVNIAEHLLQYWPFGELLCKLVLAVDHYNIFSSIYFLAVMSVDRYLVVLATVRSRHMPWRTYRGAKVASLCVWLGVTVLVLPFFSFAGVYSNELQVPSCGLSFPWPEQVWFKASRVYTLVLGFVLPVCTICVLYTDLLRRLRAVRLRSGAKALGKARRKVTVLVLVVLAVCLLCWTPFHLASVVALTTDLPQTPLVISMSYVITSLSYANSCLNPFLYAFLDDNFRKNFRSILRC

One test concerns the target T1, Human GPR7. In words: cell-based or functional assay.
B1: the “inhibition of intracellular cAMP production (IC50)” value worked out at 0.13 nM.

A further test has as its target T3, Human GPR8 receptor protein (human, UniProt P48146 1-333).
T3 construct: Full-length receptor expressed in CHO dhfr- cells (CHO/GPR8)
In words: competition with [125I-Tyr10]-hGPR8L(1-23), membrane fraction of GPR8 expressing CHO cells. The protocol: Cell membrane fraction prepared from Human GPR8 expressing cells was diluted to various concentration with assay buffer (25 mM Tris-HCl, 5 mM EDTA, 0.05% CHAPS (3-[(3-Cholamidopropyl) Dimethyl-Ammonio]-1-Propanesulfonate), 0.1% BSA, 0.25 mM PMSF, 1 μg/ml Pepstatin, 20 μg/ml Leupeptin, pH7.4), and 200 μl each of the diluent was dispensed into polypropilene test tube (Falcon 2053). In order to determine an amount of maximum binding (TB), […] of DMSO and 2 μl of 7 nM [¹²⁵I-Tyr²]-hGPR8L(1-23) or [¹²⁵I-Tyr¹⁰]-hGPR8L(1-23) were added to the membrane fraction solution. Further, in order to determine a non-specific binding (NSB), 2 μt of 100 μM hGPR8L(1-23)/DMSO solution and 2 μl of 7 nM [¹²⁵I]-Tyr²]-hGPR8L(1-23) or [¹²⁵I-Tyr¹⁰]-hGPR8L(1-23) were added to the membrane fraction solution. The reaction was done at 25° C. for 60 minutes, and the reaction mixture was filtered by suction filtration using Whatman glassfilter (GF-F) treated with polyethyleneimine. After filtration, a radioactivity remaining on the filter was counted using γ-counter, and an amount of specific binding (SB) was estimated by subtracting an amount of non-specific binding from an amount of maximum binding. Since the specific binding in the case where [¹²⁵I-Tyr¹⁰]-hGPR8L(1-23) was used, was twice as much as that in the case where [¹²⁵1-Tyr²]-hGPR8L(1-23) was used, in practice, [¹²⁵I-Tyr¹⁰]-hGPR8L(1-23) was used in the assay. When the concentration of membrane fraction was changed, a specific binding of [¹²⁵I-Tyr¹⁰]-hGPR8L(1-23) was perceived depending on the concentration of membrane fraction.
A receptor binding activity of human- and porcine-homologue derivatives of GPR8 ligand peptide, wherein the synthesis method has been described in the specification, was measured using a membrane fraction of GPR8 expressing CHO cells and [¹²⁵-Tyr¹⁰]-hGPR8L(1-23) by the method described in Reference Example 43.
By IC50 is commonly meant the midpoint of a concentration-inhibition curve. Read a low IC50 as greater potency. For the molecule B2, the half-inhibitory concentration (IC50) stood at 0.28 nM.

The molecule B3 yielded an IC50 of 2.4 nM.

Molecule B4 registered a concentration for half-maximal inhibition (IC50) of 2700 nM.

The molecule B5 had a half-inhibitory concentration (IC50) of 0.38 nM.

B6 displayed an IC50 of 0.31 nM.

As for B7, the IC50 amounted to 420 nM.

In the next test the target is T2, TGR26, rat-derived G protein-coupled …. In words: competition with [125I-Tyr10]-hGPR8L(1-23), membrane fraction of TGR26 expressing CHO cells. The protocol:
Cell membrane fraction prepared from TGR26 expressing cells was diluted to various concentration with assay buffer (25 mM Tris-HCl, 5 mM EDTA, 0.05% CHAPS (3-[(3-Cholamidopropyl) Dimethyl-Ammonio]-1-Propanesulfonate), 0.1% BSA, 0.5 mM PMSF, 1 μg/ml Pepstatin, 20 μg/ml Leupeptin, 4 μg/ml E-64, pH7.4), and 200 μl each of the diluent was dispensed into polypropilene test tube (Falcon 2053). In order to determine an amount of maximum binding, 2 μl of DMSO and 2 μl of 7 nM [¹²⁵-Tyr¹⁰]-hGPR8L(1-23) were added to the membrane fraction solution. Further, in order to determine a non-specific binding, 2 μl of 100 μM hGPR8L(1-23)/DMSO solution and 2 μl of 7 nM [¹²⁵I]-Tyr¹⁰]-hGPR8L(1-23) were added to the membrane fraction solution. The reaction was done at 25° C. for 75 minutes, and the reaction mixture was filtered by suction filtration using Whatman glassfilter (GF-F) treated with polyethyleneimine. In addition, the filter was washed twice with 1.5 ml of washing buffer (25 mM Tris-HCl, 5 mM EDTA, 0.05% CHAPS, 0.1% BSA, pH7.4). After filtration, a radioactivity remaining on the filter was counted using γ-counter, and an amount of specific binding was estimated by subtracting an amount of non-specific binding from an amount of maximum binding.
A receptor binding activity of human- and porcine-homologue derivatives of GPR8 ligand peptide obtained in the reference examples was measured using a membrane fraction of TGR26 expressing CHO cells and [¹²⁵I-Tyr¹⁰]-hGPR8L(1-23) by the method described in Reference Example 73.
For B2, the half-maximal inhibitory concentration (IC50) came to 0.12 nM.

In turn, B3 showed an IC50 of 0.27 nM.

The molecule B4 showed an IC50 of 760 nM.

In turn, B5 came in with an IC50 of 0.12 nM.

For the molecule B6, the 50% inhibitory concentration (IC50) came to 0.29 nM.

For B7, the concentration for half-maximal inhibition (IC50) came to 570 nM.

The next test concerns the target T3, Human GPR8 receptor protein. In words: cell-based or functional assay.
Regarding B2, the “Promoting activity to GTPγS binding (EC50 nM)” value (“Promoting activity” for short) was 5 nM.

Take B3: the “Promoting activity” value came to 14 nM.

As for B4, the “Promoting activity” value was > 10000 nM.

Regarding B5, the “Promoting activity” value was 1.5 nM.

Consider B6, for which the “Promoting activity” value was determined as 1.4 nM.

In the case of B7, the “Promoting activity” value was 7200 nM.

The target in the next test is T1, Human GPR7. In words: cell-based or functional assay. This is another data set of the same source.
On to B2, for which the “Promoting activity” value turned out to be 0.85 nM.

Turning to B3, the “Promoting activity” value amounted to 1.5 nM.

Regarding B4, the “Promoting activity” value is 6200 nM.

On to B5, for which the “Promoting activity” value worked out at 0.35 nM.

On to B6, for which the “Promoting activity” value came to 1.6 nM.

On to B7, for which the “Promoting activity” value was determined as 7000 nM.

Turning to B1, the “Promoting activity” value is 0.67 nM.

The target in another test is T1, Human GPR7. In words: competition with [125I-Tyr10]-hGPR8L(1-23), membrane fraction of GPR7 expressing CHO cells.
Turning to B2, the 50% inhibitory concentration (IC50) came out at 0.044 nM.

The molecule B3 gave an IC50 of 0.077 nM.

As to B4, the half-inhibitory concentration (IC50) was 2400 nM.

Take B5: the IC50 was determined as 0.066 nM.

Consider B6, for which the IC50 is 0.17 nM.

As for B7, the half-inhibitory concentration (IC50) amounted to 570 nM.

The molecule B1 showed an IC50 of 0.025 nM.
